Two proteins from patent US7601489B2, “Manganese ion regulation of reverse transcriptase activity and methods of modulating same” (The Johns Hopkins University, priority 2002, dated 2009) can be followed below.

Substrate in this data set: [Mg+2]
Kind of data set: purified protein, by the assay type. The note with it: fit to Hill equation.

B1: wild-type Ty1 RT (Saccharomyces cerevisiae S288C) (protein)
chain: MESQQLSQHSHISHGSACASVTSKEVHTNQDPLDVSASKTEECEKASTKANSQQTTTPASSAVPENPHHASPQPASVPPPQNGPYPQQCMMTQNQANPSGWSFYGHPSMIPYTPYQMSPMYFPPGPQSQFPQYPSSVGTPLSTPSPESGNTFTDSSSADSDMTSTKKYVRPPPMLTSPNDFPNWVKTYIKFLQNSNLGGIIPTVNGKPVRQITDDELTFLYNTFQIFAPSQFLPTWVKDILSVDYTDIMKILSKSIEKMQSDTQEANDIVTLANLQYNGSTPADAFETKVTNIIDRLNNNGIHINNKVACQLIMRGLSGEYKFLRYTRHRHLNMTVAELFLDIHAIYEEQQGSRNSKPNYRRNLSDEKNDSRSYTNTTKPKVIARNPQKTNNSKSKTARAHNVSTSNNSPSTDNDSISKSTTEPIQLNNKHDLHLGQELTESTVNHTNHSDDELPGHLLLDSGASRTLIRSAHHIHSASSNPDINVVDAQKRNIPINAIGDLQFHFQDNTKTSIKVLHTPNIAYDLLSLNELAAVDITACFTKNVLERSDGTVLAPIVQYGDFYWVSKRYLLPSNISVPTINNVHTSESTRKYPYPFIHRMLAHANAQTIRYSLKNNTITYFNESDVDWSSAIDYQCPDCLIGKSTKHRHIKGSRLKYQNSYEPFQYLHTDIFGPVHNLPKSAPSYFISFTDETTKFRWVYPLHDRREDSILDVFTTILAFIKNQFQASVLVIQMDRGSEYTNRTLHKFLEKNGITPCYTTTADSRAHGVAERLNRTLLDDCRTQLQCSGLPNHLWFSAIEFSTIVRNSLASPKSKKSARQHAGLAGLDISTLLPFGQPVIVNDHNPNSKIHPRGIPGYALHPSRNSYGYIIYLPSLKKTVDTTNYVILQGKESRLDQFNYDALTFDEDLNRLTASYQSFIASNEIQESNDLNIESDHDFQSDIELHPEQPRNVLSKAVSPTDSTPPSTHTEDSKRVSKTNIRAPREVDPNISESNILPSKKRSSTPQISNIESTGSGGMHKLNVPLLAPMSQSNTHESSHASKSKDFRHSDSYSENETNHTNVPISSTGGTNNKTVPQISDQETEKRIIHRSPSIDASPPENNSSHNIVPIKTPTTVSEQNTEESIIADLPLPDLPPESPTEFPDPFKELPPINSHQTNSSLGGIGDSNAYTTINSKKRSLEDNETEIKVSRDTWNTKNMRSLEPPRSKKRIHLIAAVKAVKSIKPIRTTLRYDEAITYNKDIKEKEKYIEAYHKEVNQLLKMKTWDTDEYYDRKEIDPKRVINSMFIFNKKRDGTHKARFVARGDIQHPDTYDTGMQSNTVHHYALMTSLSLALDNNYYITQLDISSAYLYADIKEELYIRPPPHLGMNDKLIRLKKSHYGLKQSGANWYETIKSYLIKQCGMEEVRGWSCVFKNSQVTICLFVDDMILFSKDLNANKKIITTLKKQYDTKIINLGESDNEIQYDILGLEIKYQRGKYMKLGMENSLTEKIPKLNVPLNPKGRKLSAPGQPGLYIDQDELEIDEDEYKEKVHEMQKLIGLASYVGYKFRFDLLYYINTLAQHILFPSRQVLDMTYELIQFMWDTRDKQLIWHKNKPTEPDNKLVAISDASYGNQPYYKSQIGNIFLLNGKVIGGKSTKASLTCTSTTEAEIHAISESVPLLNNLSYLIQELNKKPIIKGLLTDSRSTISIIKSTNEEKFRNRFFGTKAMRLRDEVSGNNLYVYYIETKKNIADVMTKPLPIKTFKLLTNKWIH
One may read the kcat as the number of substrate molecules converted per active site and unit of time at saturation. For the protein B1, the kcat (other: Wt. Ty1 RT) is 0.000447 ± 8.89e-05 s⁻¹.

B2: D211N Ty1 RT (Saccharomyces cerevisiae S288C; D1428N) (protein)
chain: AVKAVKSIKPIRTTLRYDEAITYNKDIKEKEKYIEAYHKEVNQLLKMKTWDTDEYYDRKEIDPKRVINSMFIFNKKRDGTHKARFVARGDIQHPDTYDTGMQSNTVHHYALMTSLSLALDNNYYITQLDISSAYLYADIKEELYIRPPPHLGMNDKLIRLKKSHYGLKQSGANWYETIKSYLIKQCGMEEVRGWSCVFKNSQVTICLFVDNMILFSKDLNANKKIITTLKKQYDTKIINLGESDNEIQYDILGLEIKYQRGKYMKLGMENSLTEKIPKLNVPLNPKGRKLSAPGQPGLYIDQDELEIDEDEYKEKVHEMQKLIGLASYVGYKFRFDLLYYINTLAQHILFPSRQVLDMTYELIQFMWDTRDKQLIWHKNKPTEPDNKLVAISDASYGNQPYYKSQIGNIFLLNGKVIGGKSTKASLTCTSTTEAEIHAISESVPLLNNLSYLIQELNKKPIIKGLLTDSRSTISIIKSTNEEKFRNRFFGTKAMRLRDEVSGNNLYVYYIETKKNIADVMTKPLPIKTFKLLTNKWIH
B2: the kcat (other: D211N Ty1 RT) was 0.000444 ± 7.78e-05 s⁻¹.
